Laboratory results as given in US20220249692A1 (BIOSCEPTRE AUST, published 2022).

Molecular target: T1, E200 epitope of P2X7R
T1 peptide: GHNYTTNILPGLNITC
Assay: ELISA, antibody-conjugated liposomes on E200 epitope

B1: single domain antibody (variable domain of SEQ ID NO: 7) conjugated to gemcitabine liposome nanoparticles (VHH)
VHH: EVQLLESGGGLVQPGGSLRLSCAASGFTFRNHDMGWVRQAPGKGLEWVSAISGSGGSTYYANSVKGRFTISRDNSKNTLYLQMNSLRAEDTAVYYCAEPKPMDTEFDYRSPGTLVTVSS
modifications: activated via Traut's reagent (thiolated) and conjugated to maleimide groups of Maleimido-Succinyl-PEG4000-Oleate on the liposome
notes: also called BIL03s; BIL03s-coated nanoparticles
binding result: binds
